Data published in paper PMC7363153.

Legend:
1N4R Tau (human) = 1N4R Tau (human) (UniProt P10636)
1N3R Tau (human) = 1N3R Tau (human) (UniProt P10636)

“DNAJB4 (from UniProt Q9UDY4 1-337) (natural protein)” was tested. Which disaggregation of 1N4R Tau fibrils with HSC70, HSPA4 and ATP: Tau shifted to the supernatant fraction (centrifugation, immunoblot) (1N4R Tau (human)) did it give?
Its disaggregation of 1N4R Tau fibrils with HSC70, HSPA4 and ATP: Tau shifted to the supernatant fraction (centrifugation, immunoblot) is 36%.

And the disaggregation of 1N3R Tau fibrils with HSC70, HSPA4 and ATP: Tau shifted to the supernatant fraction (centrifugation, immunoblot) (1N3R Tau (human))?
The disaggregation of 1N3R Tau fibrils with HSC70, HSPA4 and ATP: Tau shifted to the supernatant fraction (centrifugation, immunoblot) was 50%.

Which results are given for “DNAJB1 (from UniProt P25685 1-340) (natural protein)”?
disaggregation of 1N4R Tau fibrils with HSC70, HSPA4 and ATP: Tau shifted to the supernatant fraction (centrifugation, immunoblot) (1N4R Tau (human)): 26%; disaggregation of 1N3R Tau fibrils with HSC70, HSPA4 and ATP: Tau shifted to the supernatant fraction (centrifugation, immunoblot) (1N3R Tau (human)): 50%
